Test results published in patent US20190201479A1.

Biological target: IdsE of strain BB2000 with amino acids 147-169 (variable region) replaced by the equivalent sequence of IdsE from strain HI4320 (Proteus mirabilis strain BB2000; Proteus mirabilis strain HI4320)
Test: cell-based or functional assay

IdsD from Proteus mirabilis strain BB2000 (variable region from BB2000)
fold reduction in colony expansion of the 1:1 coswarm (donor CCS06 with CCS05-derived recipient producing DVR-BB and EVR-HI) against the monoculture swarm of the recipient: 3.12 fold | fold reduction in colony expansion of the 1:1 coswarm (donor CCS06 with CCS05-derived recipient producing DVR-HI and EVR-HI) against the monoculture swarm of the recipient: 3.35 fold
